According to patent US20160015831A1:

What was measured:
[1] = biological target: human CD22 (human) (UniProt P20273); test: flow cytometry, Ramos cells, 10 µg/mL
[2] = biological target: human CD22 (human) (UniProt P20273); test: flow cytometry, RL cells, 10 µg/mL
[3] = biological target: human CD22 (human) (UniProt P20273); test: flow cytometry, Daudi cells, 10 µg/mL
[4] = biological target: human CD22 (human) (UniProt P20273); test: flow cytometry, REH cells, 10 µg/ml
[5] = biological target: human CD22 (human) (UniProt P20273); test: flow cytometry, Daudi cells, 10 µg/ml
[6] = biological target: human CD22 (human) (UniProt P20273); test: flow cytometry, Raji cells, 10 µg/mL

MFI [1]: 5.4
MFI [2]: 12.8
MFI [3]: 8.3
MFI [4]: 4.5
MFI [5]: 26.1
MFI [6]: 6.2
Substance: isotype control antibody human IgG
